Measured values reported in the nanobody polyreactivity screen of Harvey et al. (2022).

Assay: yeast display, Sf9 membrane polyspecificity reagent, FACS + sequencing; frameworks hold sequencing errors
In short: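 Nanobodies came from a synthetic yeast display library in Saccharomyces cerevisiae BJ5465, induced with galactose for 36–48 hours and stained for 1 hour at 4 °C with 10% biotinylated, detergent-solubilized Sf9 membrane reagent. Cells were enriched on streptavidin microbeads and then FACS-sorted, with low and high (top ~1%) gates set on anti-HA fluorescence for expression and streptavidin fluorescence for reagent binding. Each polyreactivity label reflects the gate a clone came from. Genes were amplified by colony PCR, sequenced by MiSeq 2 × 250 and filtered by CDR length.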

## QVQLVESGGGLVQAGGSLRLSCAASGFIFKYYAMGWYRQAPGKERELVAAIRSGGGTNYADSVKGRFTISRDNAKNTVYLQMNSLKPEDTAVYYCAARGYTSYKHFGYWGQGTQVTVSS
  polyreactivity (PSR sort gate): high polyreactivity

## QVQLVESGGGLVQAGGSLRLSCAASGRIFSTNARGWYRQAPGKQRELVAVITGIGGITYYADSVKGRFTISSDNAKNTVYLKMNSLKPEDTAVYYCGADPISEFYWGVKDRYDYWGQGTQVTVSS
  polyreactivity (PSR sort gate): low polyreactivity

## QVQQQESGGGLVQAGGSLRLSCAASGTIFQLTVMGRYRQAPGNERELVASIDYGGNTNYADSVKGRFTISRDNAKNTVYLQMNILKPEDTAVYYCPASSDSWTTHPYWGQGTQVTLSS
  polyreactivity (PSR sort gate): low polyreactivity

## QDQLVESGGGLVQAGGSLRLSCAASGRLFATYAMGWNRQAPGKERELVAAISDSGGRTYYADSVTGRFTSSRDNAKNTVYLQMNSLKPEDTAVYYCAAKNGDRYARGYWGQGTQVTVSS
  polyreactivity (PSR sort gate): high polyreactivity

## QVQLVESGGGLVQAGGSLRLSCAASGRTFTPYAMGWYRQAPGKERELVAAINSDGSTNYADSVKGRFTISRDNAKNTVYLHMNSLKPEDTAVYYCAAGYSLEGDYWGQGTQVTVSS
  polyreactivity (PSR sort gate): low polyreactivity

## QVQLVDSGGGLVQAGGILRLSCAASGNIIYQNALVWSRHAPGKERELVAAITGRGSSTYYADSVKGRFTSSRDNAKNTVYLQMNSLKPEDTAVYYCAADTTPYDGYYGHGYWGQGTQVTVSS
  polyreactivity (PSR sort gate): low polyreactivity

## QVQLVESGGGLFQAGGSLRLSCAASGFTIFLNAMGWYRQAPGKERELVAAITVSGSSTYYADSVKGRFTISRDNAKNTVYLQMNSLKPEDTAVYYCNAEIYSPYYTYDYWGQGTQVTVSS
  polyreactivity (PSR sort gate): low polyreactivity

## QVQLVESGGGLVQAGGSLRLSCAASGFTFKWYTMGWYRQAPGKERELVAGISRRGGSTYYADSVKGRFTISRDNAKNTVYLQMNSLKPEDTAVYYCAAEFPTVYFPWSEMDYWGQGTQVTVSS
  polyreactivity (PSR sort gate): high polyreactivity

## QVQLVESGGGLVQAGGSLRLSCAASGSIFCYALGWNRQAPGKKRELVAAITGRCTSTYADSVKGRFTISLDNAKNTVYLQTNSLKPEDTAVYYCGPVGWFAEFLFSDIYGYYWGQGTQVTVSS
  polyreactivity (PSR sort gate): low polyreactivity

## QVQLVESGGGLVQAGGSLRLSCAASGSIFLYYAMGWYRQAPGKERELVAVITSGGITNYADSVKGRFTISRDNAKNTFYLQMNSLKPEDTAVYYCNKEYYITYFDLVYSSLDYWGQGTQVTVSS
  polyreactivity (PSR sort gate): low polyreactivity

## QVQLVESGGGLVQAGGSLRLSCAASGSIFYPYAMGWYRQAPGKERELVAAIRWRGGNTYYADSVKGRFTISRDNAKNTVYLQMNSLKPEDTAVYYCAADGKYLQGFGYYYWGQGTQVTVSS
  polyreactivity (PSR sort gate): high polyreactivity

## QVQLVESGGGLVQAGGSLRLSCAASGFTFKWYTMGWYRQAPGKERELVAGISRRGGSTYYADSVKGRFTISRDNAKNTFYLQMNSLKPEDTAVYYCAADSKLTKFYYWGQGTQVTVSS
  polyreactivity (PSR sort gate): high polyreactivity

## QVQLVESRGGLVQAGGSLRLSCAASGRLFYSYAMGWNRQEPGKEREFVAAISRSGARTYYADSVKGRFTISRDNAKNTVYLQMNSLKPEDTAVYYCAADDFSTVEYDYWGQGTQVTVSS
  polyreactivity (PSR sort gate): low polyreactivity

## QVQREESGGGLVQAGGSLRLSCAASGFIFDNNAMGWYRQAPGKERELVAAISSADSTNYADSEKGRFSISRDNAKNTVYLQMNSLKPEDTAVYSCNRSQGGEKGWFHYDSWGQGTQVTVSS
  polyreactivity (PSR sort gate): low polyreactivity

## QVQLVESGGGLVQAGGSLRLSCAASGSTFGYYTMGWYRQAPGKERELVAAISWGGGSTYYADSVKGRFTISRDNAKNTVYFQMNSLIPEDTAVYYCARTPVTSYKDDFYYWGQGTQVTVSS
  polyreactivity (PSR sort gate): low polyreactivity

## QVQLVESGGGLVQAGGSLRLSCAASGRIFHVNAMGWYRQAPGKERELVAAISTSGGRTYYADSVKGRFTISRDNAKNTVYLQMNSLKPEDTAVYYCAASLGGYGERYYYWGQGTQVTVSS
  polyreactivity (PSR sort gate): high polyreactivity

## QVQLVESGGGLVQAGGSLRLSCVASGFIFRRNAMGWYRQAPGKERELVATISSGGNTYYADSVKGRFTISRDNAKNTVYLQMNSLKPVDTAVYYCIASDGLPSKLNVYVEFDYWGQCTQVTVSS
  polyreactivity (PSR sort gate): low polyreactivity

## QVQLVESGGGLVQAGGSLRLSCAASGSILWLNAMGWYRPAPGKERELVADITRGGSTYYADSVKGRFTISRDNAKNTVYLQMNSLKPEDTAVYYCAADAYTGQIPYYYFEHYYWGQGTQVTVSS
  polyreactivity (PSR sort gate): high polyreactivity

## QVQLVESGGGLVQAGGSLRLSCAASGRTFRVNTMGWYRQAPGQEWELVAAITSSDRTYYADSVKGRFTISRDNAKNTVYLQMNSLKPDDTAVYYCAAYSEYYGVYYWGQGTQVTVSS
  polyreactivity (PSR sort gate): low polyreactivity

## QVQLVESGGGLVQAGGSLRLSCAASGRTFTIYARGWYRQAPGKERELVAAIRRTGVSTYYADSVKGRFTISRDYAKNTVYLQMNSLKPEDTAVYYCAARQYSYLRLWWYEYWGQGTQVTVSS
  polyreactivity (PSR sort gate): high polyreactivity

## QVQLVESGGGLVQAGGSLRLSCAASGLTFPFYAMGWYRQAPGKERELVAAITGSGGITYYADSVKGRFTISRDNAKNTVYLQMNSLKPEETAVYYCAFDYTYYTSFVPLFGFDYWGQGTQVTVSS
  polyreactivity (PSR sort gate): low polyreactivity

## QVQLVESGGGLVQAGGSLRLSCAASGSIFAPYAMGWYRQAPGKERELVAAISWSGDSTYYADSVKGRFTISRDNAKNTVYLQMNSLKPEDTAVSYCAAAGGFDYDYWGQATQVTVSS
  polyreactivity (PSR sort gate): low polyreactivity

## QVQLVESGGGLVQAGGSLRLSCAASGRIFYVYAMGWYRQAPGKERELVPAITSSGGSTYYADSVKGRFTISRDTAKNTVYLQMNSLKPEDTAVYYCAARERAGYSRIRYNYWGQGTQVTVSS
  polyreactivity (PSR sort gate): high polyreactivity

## QVQLVESGGGLVQAGGSLRLSSAASGRIFPHNAMGWYRQAPGKERELVAAISSNGGSTYYADSVKGRFTISRDNAKNTVYLQMNSLKPEDTAVYYCAKYRYFAGDGDYWGQGTQVTVSS
  polyreactivity (PSR sort gate): low polyreactivity

## QVQHVESGGGLVQAGCSLRLSCAASGRIFKPYVMGWYRQAPGKETELVSAISWSGGASTYYADSVKGRFTISRDNAKNTVYLQMNSLKPEDTAVYYCAADPFTIPTSEFYYWGQGTQVTVSS
  polyreactivity (PSR sort gate): low polyreactivity

## QVQLVESGGGLVQAGGSLRLSCAASGSTFYYYTMGWYRQAPGKERELVAAISGSGSRTYYADSVKGRFTISRDNAKNTVYLQMNSLNPEDTGVYYCAAKRSYPYGSGYWGQGTQVTVSS
  polyreactivity (PSR sort gate): high polyreactivity

## QVQLVESGGGLVQAGGSLRLSCAASGSTFDPNAMGWYRQAPGKETELVAAIDSGGSTYYADSVKGRFTISRDNAKNTVYLQMNSLKPEDTAVYYCATKQPTWVPRVIISYTKFDYWGQGTQVTVSS
  polyreactivity (PSR sort gate): low polyreactivity

## QVQLVESGGGLVQAGGSLRLSSAASGRISDFYTMGWYRQAPGKERELVAVIRTSGGRTNYADSVKGRFTISRDNAKNTVYLQMNSLKPEDTAVYYCAARVVRYGYKYYYWGQGTQVTVSS
  polyreactivity (PSR sort gate): low polyreactivity

## QVQLVESVGGLVQAGGSLRLSCAASGRTCGYKAMGWYRQAPGKERQLVAAISRGGSTNYADSVKGRFTISRDNAKNSVYLQMNSLKPEDTAVYYCAKTIRAYRPSRTAYRLDYWGQGTQVTVSS
  polyreactivity (PSR sort gate): high polyreactivity

## QVQLVESGGGLVQAGGSLRLSCAASGYIFGYYVMGWYRQAPGKERELVAAITGRGGSTYYADSVKGRFTISRDNAKNTVYLQMNSLKPEDTAVYYCAADATTYPYDPWHLYEIWEYYYWGQGTQVTVSS
  polyreactivity (PSR sort gate): low polyreactivity

## QVQLVESGGGLVQAGGSLRLSCAASGRTFLYYAMGWYRQAPGKERELVAGITSGGSTNYADSVKGRFTISRDNAKNTVYLQMNSLKPEETAVYYCAARYFPRIQYGRKGYDYWGQGTQVTVSS
  polyreactivity (PSR sort gate): low polyreactivity

## QVQLVESGGGLVQAGGSLRLSCAASGSIFDVYAMGWYRQAPGKERELVAAITFSGGSTYYADSVKWRFTISRDNAKNTVYLQMNSLNPEDTAVYYCSVSRSYLYPVYGYYTWLGDYWGQGTQVTVSS
  polyreactivity (PSR sort gate): low polyreactivity

## QVQLVESGGGLVQAGGSLRISCAASGSTVHYMAWYRQAPGKEREMVAGISWSGGSTYYADSVKGRFTISRDNAKNTVYLQMNSLKPEETAVYYCAADHFNYTSGRDYWGQGTQVTVSS
  polyreactivity (PSR sort gate): low polyreactivity

## QGHREESGGGLVQAGGSLRLSCAASGSTFGIYALGWYIQEQGKERELVAAITWSGSSTYYADSVKGRFTISRDNAKNNVYLQINSLKPEDTAVYYCAAEDTLYEYYYWGQGTQVTVSS
  polyreactivity (PSR sort gate): high polyreactivity

## QVELVESGGGLVQAGGSLRLSCAASGSTFYYNAMGWYRQGPGTERELVAASTFTGGSTYADSVKGRFTISRDNAKNTVYLQMTSLKPEDTAVYYCAATIQRHDYLGTGYDYWGQGTQVTVSS
  polyreactivity (PSR sort gate): low polyreactivity

## QVQLVESGGGLVQAGGSLRLSCAASGRTFTGNVMGWYIKAPGKERELVAAISRSGTSTYYADSVKGRFTISRDNAKNTVYLQMNSRKPEDTAVYYCAARRTAGYRSAEYDYWGQGTQVTVSS
  polyreactivity (PSR sort gate): high polyreactivity

## QVQLVESGGGVVQAGGSLRLSCAASGSTLARYAMGWYRQSPGKERELVAAISSDGRTYYADSVKGRFTISRDNAKNTVYLQMNSLKPEDTAVYYCSAVGKPGVYQEGDYWGQGTQVTVSS
  polyreactivity (PSR sort gate): high polyreactivity

## QVQLVESGGGLVQAGGSLRLSCAASGSTFSNYAMGWYRQAPGKERELVASISNGGSTNYADSVKGRFTISRDNAKNTVYLQMNSLKPEDTAVYNCNAESKAKYDYWGQGTQVTVSS
  polyreactivity (PSR sort gate): low polyreactivity

## QVQLVESGGGLVQAGGSLRLSCAASGFILRKYAMGWYRQAPGKERELVAAINGRGGTYYADSVKGRFTISRDNAKNTVYLQMNSLKPEDTAVYYCAAVEWYGYYTYTIDAYDYWGQGTQVTVSS
  polyreactivity (PSR sort gate): high polyreactivity

## QVQLVESGGGLVQAGGSLRLRCAASGRTFYRYAMGWYRQAPGKERELVASINRGGSTNYADSVKGRFTISRDNAKNTVYLQMNSLKPEDTAVYYCACYCYCYWGQGTQVTVSS
  polyreactivity (PSR sort gate): low polyreactivity

## QVQLVESGGGLVQAGGSLRLSCAASGFTLGRYAMGWYRQAPGKEREFVAAISSSGTTTNYADSVKGRFTISRDNAKNTVYLQMNSLKPEDTAVYFCNAYTTKRRWIKYDYWGQGTQVTVSS
  polyreactivity (PSR sort gate): high polyreactivity

## QVQLVESGGGLVQAGGSLRLSCAASGITLDRYDMGWYRQAPGKERELVAAISRSGVRTYYADSVKGRFTISRDNAKNTVYLQMNSLKPEDTAVYYCNKGYARRYASGYDYWGQGTQVTVSS
  polyreactivity (PSR sort gate): high polyreactivity

## QVQLVESGGGLVQAGGSLRLSCAASGSIFSVYAMGWYRQAPGTERELVAGITRNGGTTYYADSVKGRFTISRDNAKHTVYLQMNSLKPEDTAVYYCAADNGFPEYGVNRVWSRYDYWGQGTQVTVSS
  polyreactivity (PSR sort gate): low polyreactivity
